Experiments:
[1] = target: HLA-A2 on cells (tumor cell lines, normal primary cells, PBMCs) (human); assay: flow cytometry, fibroblasts Fib, 10 µg/ml
[2] = target: HLA-A2/KPNA1 on T2 cells (human); assay: flow cytometry, T2 cells loaded with KPNA1 [..], 10 µg/ml
[3] = target: HLA-A2 on cells (tumor cell lines, normal primary cells, PBMCs) (human); assay: flow cytometry, PBMCs #YE, 10 µg/ml
[4] = target: HLA-A2/ARHGAP on T2 cells (human); assay: flow cytometry, T2 cells loaded with ARHGAP peptide
[5] = target: HLA-A2 on other WT1 negative HLA-A2+ cells (other than 501, A498 and SKMEL; members not named); assay: flow cytometry on JVM-2 cells (WT1 mRNA -)
[6] = target: HLA-A2/M1 on T2 cells (human); assay: flow cytometry, T2 cells loaded with M1 peptide
[7] = target: HLA-A2 on cells (tumor cell lines, normal primary cells, PBMCs) (human); assay: flow cytometry, Loucy cells
[8] = target: HLA-A2/TyrD-S19 on T2 cells (human); assay: flow cytometry, T2 cells loaded with TyrD-S19 [..], 10 µg/ml
[9] = target: HLA-A2/WT1-S13 on T2 cells (human); assay: flow cytometry, peptide-loaded T2 cells (10^-4-10^-5 M)
[10] = target: HLA-A2 on HLA-A2+ cells that do not express WT1 (tumor cell lines, normal primary cells); assay: flow cytometry on 501A melanoma cells (WT1 mRNA -)
[11] = target: HLA-A2 on cells (tumor cell lines, normal primary cells, PBMCs) (human); assay: flow cytometry, Caco2 cells
[12] = target: HLA-A2/TyrD-S11 on T2 cells (human); assay: flow cytometry, T2 cells loaded with TyrD S11 [..], 10 µg/ml
[13] = target: HLA-A2/TyrD-S23 on T2 cells (human); assay: flow cytometry, T2 cells loaded with TyrD-S23 [..], 10 µg/ml
[14] = target: HLA-A2 on cells (tumor cell lines, normal primary cells, PBMCs) (human); assay: flow cytometry, WM-115 melanoma cells
[15] = target: HLA-A2/WT1 126-134 complex on T2 cells (human); assay: flow cytometry, T2 cells loaded with WT1 peptide 1x10e-5M
[16] = target: HLA-A2 on cells (tumor cell lines, normal primary cells, PBMCs) (human); assay: flow cytometry, astrocytes #1800, 10 µg/ml
[17] = target: HLA-A2/TyrD-S21 on T2 cells (human); assay: flow cytometry, T2 cells loaded with TyrD-S21 [..], 10 µg/ml
[18] = target: HLA-A2/P68 on T2 cells (human); assay: flow cytometry, T2 cells loaded with P68 peptide
[19] = target: HLA-A2 on cells (tumor cell lines, normal primary cells, PBMCs) (human); assay: flow cytometry, MEWO melanoma cells
[20] = target: HLA-A2/WT1 126-134 complex on T2 cells (human); assay: flow cytometry, T2 cells loaded with WT1 [..], 10 µg/ml
[21] = target: HLA-A2/TyrD-S10 on T2 cells (human); assay: flow cytometry, T2 cells loaded with TyrD S10 [..], 10 µg/ml
[22] = target: HLA-A2/TyrD-S12 on T2 cells (human); assay: flow cytometry, T2 cells loaded with TyrD S12 [..], 10 µg/ml
[23] = target: HLA-A2/GP9 on T2 cells (human); assay: flow cytometry, T2 cells loaded with GP9 peptide
[24] = target: HLA-A2 on cells (tumor cell lines, normal primary cells, PBMCs) (human); assay: flow cytometry, hepatocytes #5200-1, 10 µg/ml
[25] = target: HLA-A2/WT1-S10 on T2 cells (human); assay: flow cytometry, peptide-loaded T2 cells (10^-4-10^-5 M), PE anti-mouse
[26] = target: HLA-A2 on cells (tumor cell lines, normal primary cells, PBMCs) (human); assay: flow cytometry, cardiac myocytes #6200-2, 10 µg/ml
[27] = target: HLA-A2/TyrD-S17 on T2 cells (human); assay: flow cytometry, T2 cells loaded with TyrD-S17 [..], 10 µg/ml
[28] = target: HLA-A2 on cells (tumor cell lines, normal primary cells, PBMCs) (human); assay: flow cytometry, WM-115 melanoma cells, 10 µg/ml
[29] = target: HLA-A2/P68 on T2 cells (human); assay: flow cytometry, T2 cells loaded with P68 [..], 10 µg/ml
[30] = target: HLA-A2/TyrD-S20 on T2 cells (human); assay: flow cytometry, T2 cells loaded with TyrD-S20 [..], 10 µg/ml
[31] = target: HLA-A2 on cells (tumor cell lines, normal primary cells, PBMCs) (human); assay: flow cytometry, KYSE-140 cells, 10 µg/ml
[32] = target: HLA-A2 on cells (tumor cell lines, normal primary cells, PBMCs) (human); assay: flow cytometry, HepG2 cells
[33] = target: HLA-A2/Tyrosinase369-377 complex on cells (human); assay: flow cytometry, T2 cells loaded with TyrD peptide ([..] printed under the label), 10 µg/ml
[34] = target: HLA-A2/TyrD-S8 on T2 cells (human); assay: flow cytometry, T2 cells loaded with TyrD S8 [..], 10 µg/ml
[35] = target: HLA-A2 on cells (tumor cell lines, normal primary cells, PBMCs) (human); assay: flow cytometry, H1703 cells, 10 µg/ml
[36] = target: HLA-A2 on cells (tumor cell lines, normal primary cells, PBMCs) (human); assay: flow cytometry, SK-Mel-5 melanoma cells, 10 µg/ml
[37] = target: HLA-A2 on cells (tumor cell lines, normal primary cells, PBMCs) (human); assay: flow cytometry, H2228 cells, 10 µg/ml
[38] = target: HLA-A2/MAGE-A4 230-239 complex on cells (human); assay: flow cytometry, T2 cells loaded with 10^-4 M peptide
[39] = target: HLA-A2/PAP 112-120 complex on T2 cells (human); assay: as above
[40] = target: HLA-A2/MAGE-A9 223-231 complex on T2 cells (human); assay: as above

BB7.2 (antibody)
MFI [1]: 481 | MFI relative to background [2]: 729 | MFI [3]: 366 | MFI [4]: 2580 | MFI [5]: 238 | MFI [6]: 1990 | GeoMean [7]: 734 | MFI relative to background [8]: 555 | MFI [9]: 296 | MFI [10]: 229 | GeoMean [11]: 123 | MFI relative to background [12]: 473 | MFI relative to background [13]: 443 | MFI [14]: 127 | MFI [15]: 369 | MFI [16]: 751 | MFI relative to background [17]: 654 | MFI [18]: 2660 | MFI [19]: 76 | MFI relative to background [20]: 1420 | MFI relative to background [21]: 620 | MFI relative to background [22]: 532 | MFI [23]: 2470 | MFI [24]: 591 | MFI [25]: 1350 | MFI [26]: 733 | MFI relative to background [27]: 444 | MFI [28]: 215 | MFI relative to background [29]: 1220 | MFI relative to background [30]: 445 | MFI [31]: 36.1 | GeoMean [32]: 154 | MFI relative to background [33]: 848 | MFI relative to background [34]: 539 | MFI [35]: 351 | MFI [36]: 118 | MFI [37]: 210 | MFI [38]: 492 | MFI [39]: 540 | MFI [40]: 486

Reference: patent publication US20180171024A1
